B1: Nuclear distribution protein nudE-like 1 (Mus musculus), Q9ERR1 (parent)
chain: MDGEDIPDFSSLKEETAYWKELSLKYKQSFQEARDELVEFQEGSRELEAELEAQLVQAEQRNRDLQADNQRLKYEVEALKEKLEHQYAQSYKQVSVLEDDLSQTRAIKEQLHKYVRELEQANDDLERAKRATIVSLEDFEQRLNQAIERNAFLESELDEKESLLVSVQRLKDEARDLRQELAVRERQQEVTRKSAPSSPTLDCEKMDSAVQASLSLPATPVGKGTENSFPSPKAIPNGFGTSPLTPSARISALNIVGDLLRKVGALESKLAACRNFAKDQASRKSYVPGSVNCGVMNSNGPECPRSGRATFFHKGAVNGFDPAPPPPGLGSSRPSSAPGMLPLSV

Variants of: B1
Conditions: with 1433e_mouse Ywhae

Row | Variant | effect of a mutation on the interaction
1 | MDGEDIPDFSSLKEETAYWKELSLKYKQSFQEARDELVEFQEGSRELEAELEAQLVQAEQRNRDLQADNQRLKYEVEALKEKLEHQYAQSYKQVSVLEDDLSQTRAIKEQLHKYVRELEQANDDLERAKRATIVSLEDFEQRLNQAIERNAFLESELDEKESLLVSVQRLKDEARDLRQELAVRERQQEVTRKSAPSSPTLDCEKMDSAVQASLSLPATPVGKGTENSFPAPKAIPNGFGTSPLTPSARISALNIVGDLLRKVGALESKLAACRNFAKDQASRKSYVPGSVNCGVMNSNGPECPRSGRATFFHKGAVNGFDPAPPPPGLGSSRPSSAPGMLPLSV [S231A] | decreasing interaction strength
2 | MDGEDIPDFSSLKEETAYWKELSLKYKQSFQEARDELVEFQEGSRELEAELEAQLVQAEQRNRDLQADNQRLKYEVEALKEKLEHQYAQSYKQVSVLEDDLSQTRAIKEQLHKYVRELEQANDDLERAKRATIVSLEDFEQRLNQAIERNAFLESELDEKESLLVSVQRLKDEARDLRQELAVRERQQEVTRKSAPSAPTLDCEKMDSAVQASLSLPAAPVGKGTENSFPAPKAIPNGFGTSPLTPSARISALNIVGDLLRKVGALESKLAACRNFAKDQASRKSYVPGSVNCGVMNSNGPECPRSGRATFFHKGAVNGFDPAPPPPGLGSSRPSSAPGMLPLSV [S198A;T219A;S231A] | disrupting interaction strength

Further lines, results first:

Row | effect of a mutation on the interaction | Variant
3 | decreasing interaction strength | MDGEDIPDFSSLKEETAYWKELSLKYKQSFQEARDELVEFQEGSRELEAELEAQLVQAEQRNRDLQADNQRLKYEVEALKEKLEHQYAQSYKQVSVLEDDLSQTRAIKEQLHKYVRELEQANDDLERAKRATIVSLEDFEQRLNQAIERNAFLESELDEKESLLVSVQRLKDEARDLRQELAVRERQQEVTRKSAPSAPTLDCEKMDSAVQASLSLPATPVGKGTENSFPSPKAIPNGFGTSPLTPSARISALNIVGDLLRKVGALESKLAACRNFAKDQASRKSYVPGSVNCGVMNSNGPECPRSGRATFFHKGAVNGFDPAPPPPGLGSSRPSSAPGMLPLSV [S198A]
4 | decreasing interaction strength | MDGEDIPDFSSLKEETAYWKELSLKYKQSFQEARDELVEFQEGSRELEAELEAQLVQAEQRNRDLQADNQRLKYEVEALKEKLEHQYAQSYKQVSVLEDDLSQTRAIKEQLHKYVRELEQANDDLERAKRATIVSLEDFEQRLNQAIERNAFLESELDEKESLLVSVQRLKDEARDLRQELAVRERQQEVTRKSAPSSPTLDCEKMDSAVQASLSLPAAPVGKGTENSFPSPKAIPNGFGTSPLTPSARISALNIVGDLLRKVGALESKLAACRNFAKDQASRKSYVPGSVNCGVMNSNGPECPRSGRATFFHKGAVNGFDPAPPPPGLGSSRPSSAPGMLPLSV [T219A]

— IntAct's records for PubMed 12796778
